# Measurements taken from ChEMBL document CHEMBL1129640, “Assessment of structural requirements for the monoamine oxidase-B-catalyzed oxidation of 1,4-disubstituted-1,2,3,6-tetrahydropyridine derivatives related to the neurotoxin 1-methyl-4-phenyl-1,2,3,6-tetrahydropyridine” (J Med Chem, 1996).
# “And” between values parts separate entries of the source, which are not always exact repeats. Equal values may be shown once.
# B1: Amine oxidase [flavin-containing] B (Bos taurus) (protein)
# chain: MSSKCDVVVVGGGISGMAAAKLLHDSGLNVIVLEARDRVGGRTYTLRNQKVKYVDLGGSYVGPTQNHILRLSKELGLETYKVNEVERLIHHTKGKSYPFRGSFPSVWNPITYLDHNNLWRTMDDMGREIPSDAPWKAPLAEQWDLMTMKELLDKICWTESSKQLAILFVNLCVTAEIHEVSALWFLWYVKQCGGTTRIFSTSNGGQERKFVGGSGQVSERIMDLLGDRVKLERPVIHIDQTGENVLVETLNHELYEAKYVISAVPPVLGMKIHFNPPLPMMRNQLITRVPLGSVIKSIVYYKEPFWRNMDYCGSMIIEGEEAPVAYALDDTKPDGSYPAIIGFILAHKARKLARLTKEERLKKLCDLYAKVLGSQEALHPVHYEEKNWCEEQYSGGCYTSYFPPGIMTQYGRVLRQPVGRIYFAGTETATHWSGYMEGAVEAGERAAREILHAMGKIPEDEIWLPEPESVDVPAKPITTTFLQRHLPSVPGLLKLIGLTTIFSATALGFLAHKRGLLVRI
# Experiments:
# [1] = substrate: CCc1ccc(C2=CCN(C)CC2)cc1; experiment: (§1) Michaelis-Menten constant was measured against monoamine oxidase B (MAO-B) from beef liver
# [2] = substrate: CN1CC=C(c2ccc(Br)cc2)CC1; experiment: as §1
# [3] = substrate: CN1CC=C(c2ccc(Cl)cc2)CC1; experiment: as §1
# [4] = substrate: CN1CC=C(c2ccc(F)cc2)CC1; experiment: as §1
# [5] = substrate: Cc1ccc(C2=CCN(C)CC2)cc1; experiment: as §1
# [6] = substrate: COc1ccc(C2=CCN(C)CC2)cc1; experiment: Michaelis-Menten constant was measured against monoamine oxidase B (MAO-B) from beef liver; Inactive
protein,measurement,setting,value
B1,Km,[1],1890 µM
same,kcat,[1],1.42 s⁻¹
same,Km,[2],140 µM
same,kcat,[2],1.18 s⁻¹
same,Km,[3],180 µM and 200 µM
same,Km,[4],220 µM
same,kcat,[4],1.55 s⁻¹
same,Km,[5],500 µM and 490 µM
same,Km,[6],940 µM
same,kcat,[6],1.13 s⁻¹
